The values that follow come from the supplement of paper PMC7877785.

± gives the uncertainty stated by the source.

This data set can be described thus: self-splicing fitness, log relative to wild type (ln ratio); higher = more splicing; Tetrahymena group I intron in knt gene, E. coli kanamycin selection, DiMSum; sequences stand for … in CUCUCU…GGAGGGAAAAGUUAUCAGGCAUGCACCUGGUAGCUAGUCUUUAAACCAAUAGAUUGCAUCGGUUUAAAAGGCAAGACCGUCAAAUUGCGGGAAAGGGGUCAACAGCCGUUCAGUACCAAGUCUCAGGGGAAACUUUGAGAUGGCCUUGCAAAGGGUAUGGUAAUAAGCUGACGGACAUGGUCCUAACCACGCAGCCAAGUCCUAAGUCAACAGAUCUUCUGUUGAUAUGGAUGCAGUUCACAGACUAAAUGUCGGUCGGGGAAGAUGUAUUCUUCUCAUAAGAUAUAGUCGGACCUCUCCUUAAUGGGAGCUAGCGGAUGAAGUGAUGCAACACUGGAGCCGCUGGGAACUAAUUUGUAUGCGAAAGUAUAUUGAUUAGUUUUGGAGUACUCGUGGUCG
The gist of the method:
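The eight P1ex-region nucleotides of an intron in the knt kanamycin-resistance gene on pET-22b(+) were all randomised and the library put into E. coli BL21(DE3). Six replicate transformations were grown overnight at 37°C or 30°C on LB agar with or without 25 μg/mL kanamycin, together with 100 μg/mL carbenicillin, 50 μM IPTG and 0.2% rhamnose. Colonies were pooled and amplicon-sequenced on an Illumina HiSeq 2500. Fitness from DiMSum is the error-weighted combination of wild-type-normalised replicate fold changes, kanamycin over none.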

Turning to AGUCAGCAAUAUUACGAUUU, the “self-splicing fitness (ln)” value (30 °C) is -0.399 ± 0.064 and the “self-splicing fitness (ln)” value (37 °C) was -0.286 ± 0.11. On the same counts, the results for GCAUAGCAAUAUUACGUGCA are -2.74 ± 0.17 and -1.21 ± 0.14. The matching figures for CCAGAGCAAUAUUACGUCAU: -3.64 ± 0.28 and -2.81 ± 0.18. AGUGAGCAAUAUUACGUCAA: the “self-splicing fitness (ln)” value by setting is: (30 °C) -0.971 ± 0.2; (37 °C) -2.79 ± 0.36.

As for GUUCAGCAAUAUUACGUGUC, the “self-splicing fitness (ln)” value runs as follows: (30 °C) -0.83 ± 0.097; (37 °C) 0.00179 ± 0.094. On the same counts, the results for UGUUAGCAAUAUUACGACUG are 0.492 ± 0.095 and 0.167 ± 0.12. The matching figures for AGCUAGCAAUAUUACGUAGA: -4.65 ± 0.32 and -1.15 ± 0.14. For the sequence CGUCAGCAAUAUUACGCGGU, the “self-splicing fitness (ln)” value (30 °C) is -2.93 ± 0.16 and the “self-splicing fitness (ln)” value (37 °C) is -2.27 ± 0.19. On the same counts, the results for CCUAAGCAAUAUUACGGCGU are -4.15 ± 0.3 and -2.49 ± 0.24. The matching figures for GCCUAGCAAUAUUACGUCGU: -0.763 ± 0.068 and -0.337 ± 0.069. UAGUAGCAAUAUUACGCAAU: the “self-splicing fitness (ln)” value (37 °C) was -2.45 ± 0.35. On to ACUCAGCAAUAUUACGUGGU, for which the “self-splicing fitness (ln)” value by setting is: (30 °C) -3.75 ± 0.12; (37 °C) -2.75 ± 0.12. The matching figures for UGCAAGCAAUAUUACGGCGA: -0.0647 ± 0.094 and -0.21 ± 0.11. Regarding ACCCAGCAAUAUUACGUCUA, the “self-splicing fitness (ln)” value by setting is: (30 °C) -1.41 ± 0.093; (37 °C) -0.988 ± 0.09.

Turning to UCAAAGCAAUAUUACGAGAG, the “self-splicing fitness (ln)” value by setting is: (30 °C) -3.08 ± 0.2; (37 °C) -2.21 ± 0.21. For the sequence UCACAGCAAUAUUACGCACC, the “self-splicing fitness (ln)” value (30 °C) was -2.35 ± 0.3. For the sequence AGUAAGCAAUAUUACGUCCC, the “self-splicing fitness (ln)” value runs as follows: (30 °C) -0.303 ± 0.15; (37 °C) 0.019 ± 0.18. As to UCCCAGCAAUAUUACGAAUU, the “self-splicing fitness (ln)” value reads like this: (30 °C) -3.04 ± 0.19; (37 °C) -2.27 ± 0.17. On the same counts, the results for CCAAAGCAAUAUUACGCCUU are -3.62 ± 0.34 and -2.88 ± 0.32.

In the case of CGUCAGCAAUAUUACGCCCA, the “self-splicing fitness (ln)” value is -0.52 ± 0.12 (30 °C) and -0.0594 ± 0.14 (37 °C).

GGACAGCAAUAUUACGACCG: the “self-splicing fitness (ln)” value by setting is: (30 °C) -0.447 ± 0.16; (37 °C) -0.054 ± 0.27. The matching figures for ACCAAGCAAUAUUACGAAGU: -3.09 ± 0.14 and -1.31 ± 0.14. On the same counts, the results for GCCGAGCAAUAUUACGUGAU are -1.01 ± 0.073 and -0.638 ± 0.088.

In the case of GUCAAGCAAUAUUACGUUGC, the “self-splicing fitness (ln)” value reads like this: (30 °C) -5.11 ± 0.34; (37 °C) -2.28 ± 0.21. On the same counts, the results for CCCGAGCAAUAUUACGCAUU are -3.69 ± 0.33 and -2.22 ± 0.3. Turning to UCUUAGCAAUAUUACGUCUU, the “self-splicing fitness (ln)” value runs as follows: (30 °C) -3.21 ± 0.32; (37 °C) -3 ± 0.27. The matching figures for UCACAGCAAUAUUACGUGGA: -2.51 ± 0.095 and -2.36 ± 0.1. The matching figures for AUCCAGCAAUAUUACGGCAA: -0.324 ± 0.1 and -0.263 ± 0.12. On the same counts, the results for GACAAGCAAUAUUACGGUCA are -0.777 ± 0.13 and -0.735 ± 0.12. Take GCCUAGCAAUAUUACGCUUU: the “self-splicing fitness (ln)” value runs as follows: (30 °C) -0.497 ± 0.097; (37 °C) -0.0274 ± 0.12.

Regarding UACGAGCAAUAUUACGACUG, the “self-splicing fitness (ln)” value was -0.684 ± 0.24 (30 °C) and -1.35 ± 0.17 (37 °C). On the same counts, the results for CAGAAGCAAUAUUACGUACA are -2.14 ± 0.11 and -0.932 ± 0.12. For the sequence GUAAAGCAAUAUUACGAUAA, the “self-splicing fitness (ln)” value was -0.115 ± 0.076 (30 °C) and 0.632 ± 0.11 (37 °C). On the same counts, the results for UAAUAGCAAUAUUACGCCUA are -0.175 ± 0.16 and 0.0899 ± 0.19.
